CN113583125A (SUZHOU CENTERGENE PHARMACEUTICALS CO LTD, dated 2021)
Positions count from the first letter of the chain named. One block for each binder: values may come before it.

Columns and labels:
hCG (人绒毛膜促性腺激素) = target: T1, hCG (人绒毛膜促性腺激素) (human, UniProt P0DN86 21-165); assay: affinity chromatography, VHH coupled to CNBr-agarose, hCG from CHO supernatant, elution at pH 3, SDS-PAGE
T1 construct: In the resin experiments hCG comes from the supernatant of CHO cells that express it stably

FSH (卵泡刺激素) [1] = target: T2, FSH (卵泡刺激素) (human, UniProt P01225 19-129); assay: affinity purification on VHH-agarose (CNBr), SDS-PAGE of the eluate
T2 construct: also called hFSH
T2 sequence (chain, as listed by the source, chain 1 of 2): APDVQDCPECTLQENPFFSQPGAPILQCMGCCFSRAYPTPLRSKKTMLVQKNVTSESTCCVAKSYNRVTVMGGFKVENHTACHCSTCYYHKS
T2 sequence (P01225 19-129, chain 2 of 2): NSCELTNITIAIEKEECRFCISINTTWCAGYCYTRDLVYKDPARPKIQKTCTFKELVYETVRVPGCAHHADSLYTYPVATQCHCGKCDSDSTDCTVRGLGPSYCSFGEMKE

hLH (人促黄体生成素) = hLH (人促黄体生成素) (human, UniProt P01229 21-141); assay: as above
Chain of hLH (人促黄体生成素) (chain, as listed by the source, chain 1 of 2): as the sequence (chain, as listed by the source, chain 1 of 2) above
Chain of hLH (人促黄体生成素) (P01229 21-141, chain 2 of 2): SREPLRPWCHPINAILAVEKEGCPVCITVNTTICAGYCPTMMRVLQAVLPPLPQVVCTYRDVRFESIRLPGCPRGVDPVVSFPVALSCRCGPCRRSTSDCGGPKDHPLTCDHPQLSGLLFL

[2] = target: T3, SEQ ID NO:1蛋白 (FSH、hCG、TSH、FSH-CTP和hLH共同α链) (Homo sapiens (Human), UniProt P01215 25-116); assay: Phage ELISA screen, VHH displayed on phage
T3 construct: Immunogen for the alpaca and target of the Phage ELISA screen
T3 sequence (P01215 25-116 limits assumed): as the sequence (chain, as listed by the source, chain 1 of 2) above

FSH (卵泡刺激素) [3] = target: T2, FSH (卵泡刺激素); assay: ELISA, plate coated with 10 ug/ml FSH, VHH from 1 mg/ml in 2-fold steps, detection with anti-6xHis-HRP

T1 sequence (chain, as listed by the source, chain 1 of 2, other chains not shown): as the sequence (chain, as listed by the source, chain 1 of 2) above

- binding result (hCG (人绒毛膜促性腺激素)): binds
B1: 1G9E (SEQ ID NO:12, VHH-sgs-HHHHHH) (VHH)
VHH: QVQLQESGGGLVQAGGSLRLSCAASGRTGSTYDMGWFRQAPGKERESVAAINWDSARTYYASSVRGRFTISRDNAKKTVYLQMNSLKPEDTAVYTCGAGEGGTWDSWGQGTQVTVSS

- binding result (FSH (卵泡刺激素) [1]): binds
- binding result (hLH (人促黄体生成素)): binds
B2: SEQ ID NO:11蛋白 (1G9E突变体, VHH-sgs-HHHHHH) (VHH)
VHH: B1 VHH with Y59H
notes: Expressed in E. coli BL21 Star(DE3) and purified on nickel; In the resin experiments it is coupled to agarose

- binding result [2]: binds
- binding result (hCG (人绒毛膜促性腺激素)): binds
B3: SEQ ID NO:16蛋白 (VHH-sgs-HHHHHH) (VHH)
VHH: QVQVVESGGGLVQAGDSLRLSCAASGRTFSSYAMGWFRQAPGKEREAVAAITWSGGSTYYADSVKGRFTISRDNTKNTVYLQMNSLKPEDTAVYYCAARDRADGSSWWDYWGQGTQVTVSS

- binding result [2]: binds
- binding result (hCG (人绒毛膜促性腺激素)): binds
B4: SEQ ID NO:18蛋白 (VHH-sgs-HHHHHH) (VHH)
VHH: B3 VHH with V4L, A14T, D16G, K43E, D62A, K65Q, T75A

- binding result [2]: binds
- binding result (hLH (人促黄体生成素)): binds
- binding result (FSH (卵泡刺激素) [3]): binds
B5: SEQ ID NO:17蛋白 (VHH-sgs-HHHHHH) (VHH)
VHH: B3 VHH with V4L, A14T, D16G, K43E, I51L, T52S, D62A, K65Q, T75A
notes: In the resin experiments it is coupled to agarose
